{
  "source": "the nanobody polyreactivity screen of Harvey et al. (2022)",
  "data": [
    {"test": "yeast display, Sf9 membrane polyspecificity reagent, FACS + sequencing; frameworks hold sequencing errors", "method_in_brief": "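Synthetic nanobody libraries on Saccharomyces cerevisiae BJ5465 were galactose-induced for 36–48 hours, stained 1 hour at 4 °C with 10% biotinylated, detergent-solubilized Sf9 membrane reagent and enriched on streptavidin microbeads. FACS then separated cells into low and high (top ~1%) gates by anti-HA (expression) and streptavidin (reagent binding) fluorescence. Genes were colony-PCR amplified, MiSeq 2 × 250 sequenced and CDR-length filtered. A clone's polyreactivity label is that of its gate of origin.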", "values": [
      {"sequence": "QVQLVESGGGLVQAGGSLRLSCAASGSIFRNYAMGWYRQAPGKERELVAAISYRGGSTYYADSVKGRFTISRDNAKNTVYLQMNSLKPEDTAVYYCAARTRKAYYYWGQGTQVTVSS", "polyreactivity (PSR sort gate)": "high polyreactivity"},
      {"sequence": "QVQLVESGGGLVQAGGSLRLSCAASGSIFRNYAMGWYRQAPGKERELVATIRYRGGRTYADSVKGRFTISRDNAKNTVYLQMNRLKPEDTAFYYCNTYARYAYLTGRMDYWGQGTQVTVSS", "polyreactivity (PSR sort gate)": "high polyreactivity"},
      {"sequence": "QVQLVESGGGLVQAGGSLRLSCAASGSIFRPNAMGWYRQAPGKERELVAAITWSGDSTYYADSVKGRFTISRDNAKNTVYLQMNSLKPEDTAVYYCAKYSLVFYISLYGYWGQGTQVTVSS", "polyreactivity (PSR sort gate)": "low polyreactivity"},
      {"sequence": "QVQLVESGGGLVQAGGSLRLSCAASGSIFRPYAMGWYRQAPGKEMELVAAISSSGGSTYYADSVKGRFTISRDNAKNTVYLQMNSLKPEDTAVYYCAAESRSTWIHSRDYWGQGTQVTVSS", "polyreactivity (PSR sort gate)": "low polyreactivity"},
      {"sequence": "QVQLVESGGGLVQAGGSLRLSCAASGSIFRPYAMGWYRQAPGKERELVAAISSSSGRTYYADSVKGRFTISRDNAKNTVYLQMNSLKPEDTAVYYCAADRYSFRGDYYWGQGTQVTVSS", "polyreactivity (PSR sort gate)": "low polyreactivity"},
      {"sequence": "QVQLVESGGGLVQAGGSLRLSCAASGSIFRPYAMGWYRQAPGKERELVAAISYRGGSTYYADSVKGRFTISRDNAKNTVYLQMNSLKPEDTAVYYCAADSREEGDYWGQGTQVTVSS", "polyreactivity (PSR sort gate)": "low polyreactivity"},
      {"sequence": "QVQLVESGGGLVQAGGSLRLSCAASGSIFRPYTMGWYRQAPGKERELVATISSTGITNYADSVKGRFTISRDNAKNTVYLQMNSLKPEDTAVYYCAARGRYVTPQPSYDYWGQGTQVTVSS", "polyreactivity (PSR sort gate)": "high polyreactivity"},
      {"sequence": "QVQLVESGGGLVQAGGSLRLSCAASGSIFRQNAMGWYRQAPGKERELVAAISWSGVRTYYADSVKGRFTISRDNAKNTVYLQMNSLKPEDTAVYYCATRYTHVYYGRISSSPKFDSWGQGTQVTVSS", "polyreactivity (PSR sort gate)": "low polyreactivity"},
      {"sequence": "QVQLVESGGGLVQAGGSLRLSCAASGSIFRRNAMGWYRQAPGKEREFVAAITWNGGSTYYADSEKGRFTNSRDNAKNPVYLQRNSLKPEDTAVYYCAARAFYYAGDWYGYWGQGTQVTVSS", "polyreactivity (PSR sort gate)": "high polyreactivity"},
      {"sequence": "QVQLVESGGGLVQAGGSLRLSCAASGSIFRRNAMGWYRQAPGKERELVAAIRSGGGTNYADSVKGRFTISRDNAKNTVYLQMNSLKPEDTAVYYCAAVYERYYLFEYDYWGQGTQVTVSS", "polyreactivity (PSR sort gate)": "low polyreactivity"},
      {"sequence": "QVQLVESGGGLVQAGGSLRLSCAASGSIFRRNPMGWYRQAPGKESELVAAISSSGGSTYYADSVKGGFTISRDIAKNTFYLQMNSVKPEDTAVYYCAARFGPQYRFDYWGQGTQVTVSS", "polyreactivity (PSR sort gate)": "high polyreactivity"},
      {"sequence": "QVQLVESGGGLVQAGGSLRLSCAASGSIFRRNTMGWYRQAPGKERELVAAISTRGGSTYYADSVKGRFTISRDNAKNTVYLQMNSLKPEDTAVYYCNTRGYYIVHRGYDYWGQGTQVTVSS", "polyreactivity (PSR sort gate)": "high polyreactivity"},
      {"sequence": "QVQLVESGGGLVQAGGSLRLSCAASGSIFRRYAMGWYRQAPGKEREFVAAITRSGGGTYYADSVKGRFTISRDNAKNTVYLQMNSLKPEDSAVYYCAKDVFVQRSRYPEGDYWGQGTQVTVSS", "polyreactivity (PSR sort gate)": "high polyreactivity"},
      {"sequence": "QVQLVESGGGLVQAGGSLRLSCAASGSIFRRYAMGWYRQAPGKEREFVAAITRSGGGTYYADSVKGRFTISRDNAKNTVYLQMNSLKPEDTAVYYCAKDVFVQRSRYPEGDYWGQGTQVTVSS", "polyreactivity (PSR sort gate)": "high polyreactivity"},
      {"sequence": "QVQLVESGGGLVQAGGSLRLSCAASGSIFRRYAMGWYRQAPGKERELVAAISGSAGSTYYADSVKGRFTISRDNAKNTVYLQMNSLKPEDTAVYYCKTDRSRSPGDVESASDIKRDYWGQGTQVTVSS", "polyreactivity (PSR sort gate)": "low polyreactivity"},
      {"sequence": "QVQLVESGGGLVQAGGSLRLSCAASGSIFRRYAMGWYRQAPGKERELVAAISWRGDSTYYADSVKGRFTISRDNAKNTVYLQMNSLIPEDTAVYYCAADYYRAGRYWGQRHGYDYWGQGTQVTVSS", "polyreactivity (PSR sort gate)": "low polyreactivity"},
      {"sequence": "QVQLVESGGGLVQAGGSLRLSCAASGSIFRRYAMGWYRQAPGKERELVAAITGTGGRTYYADSVKGRFTMSRDNAKNTVYLQMNSLKPEDTAVYYCNKLVTYYRADPEYDYWGQGTHVTVSS", "polyreactivity (PSR sort gate)": "high polyreactivity"},
      {"sequence": "QVQLVESGGGLVQAGGSLRLSCAASGSIFRRYAMGWYRQAPGKERELVATISYRGGTTYYADSVKVRFTISRDNAKNTVYLQMNSLKPEDTAVYYCNTLYYRGIYDHWGQGTQVTVSS", "polyreactivity (PSR sort gate)": "high polyreactivity"},
      {"sequence": "QVQLVESGGGLVQAGGSLRLSCAASGSIFRRYATGWYRQAPGKERQLVAAISSGGSTYADSVKGRFTISRDNAKNTVYLQMNSLKPEDTAVYYCNASGRWYYGRRYDYWGHGTQVTVSS", "polyreactivity (PSR sort gate)": "low polyreactivity"},
      {"sequence": "QVQLVESGGGLVQAGGSLRLSCAASGSIFRSNAMGWYRQAPGKEREVVAAISSRGGSTYYADSVKGRFTISRDNAKNTVYLQMNSLKPEDTAVYFCNKARYTVISYDEYDYWGQGTQVTVSS", "polyreactivity (PSR sort gate)": "high polyreactivity"},
      {"sequence": "QVQLVESGGGLVQAGGSLRLSCAASGSIFRSNSMGWYRQAPGKERELVAAISSRGGSTYYADSVKGRFTISRDNAKNTVYLQMNSLKPEDTAVYYCYKDRYTVISYDEYDYWGQGTQVTVSS", "polyreactivity (PSR sort gate)": "high polyreactivity"},
      {"sequence": "QVQLVESGGGLVQAGGSLRLSCAASGSIFRSSDMGWYRQAPGKERELVAAISDSTGTTYYADSVKGRFTISRDNAKNTVYLQMNSLKPEDTAVYYCAADYFWYRSGRYHYWGQGTQVTVSS", "polyreactivity (PSR sort gate)": "high polyreactivity"},
      {"sequence": "QVQLVESGGGLVQAGGSLRLSCAASGSIFRSYAMGWYRQAPGKERELVAAISRRGGSTYYADSVKGRFTISRDNAKNTVYLQMNSLKPADTGVYYCAAVRYNSRVSTTPSDMYYWGQGTQVTVSS", "polyreactivity (PSR sort gate)": "low polyreactivity"},
      {"sequence": "QVQLVESGGGLVQAGGSLRLSCAASGSIFRSYAMGWYRQAPGNERELVAAITRSGGSTYYADSVKGRFTISRDNAKNTVYLQMNSLKPEDTAVYYCAAEYYSYTWGWGHGYWGQGTQVTVSS", "polyreactivity (PSR sort gate)": "high polyreactivity"},
      {"sequence": "QVQLVESGGGLVQAGGSLRLSCAASGSIFRTNAMGWYRQAPGKEREFVASISSDSGNTYYADSVKGRFTISRDNAKYTVYLQMNSLKPEDTAVYYCARRKVRYWSYRAANYYWGQGTQVTVSS", "polyreactivity (PSR sort gate)": "low polyreactivity"},
      {"sequence": "QVQLVESGGGLVQAGGSLRLSCAASGSIFRTNTMGWYRQAPGKEREFVAAITAIGDSTYYADSVKGRFTISRDNAKNTVYLQMNSLKPEDTAVYYCAAEKVSWGYHFYSSYDYWGQGTQVTVSS", "polyreactivity (PSR sort gate)": "low polyreactivity"},
      {"sequence": "QVQLVESGGGLVQAGGSLRLSCAASGSIFRTYTMGWYRQAPGKEREFVAAISRSGGSTYYADSVKGRFTISRDNAKNTVYLQMNSLKPEDTAVYYCNARCGLGSYGYWGQGTQVTVSS", "polyreactivity (PSR sort gate)": "high polyreactivity"},
      {"sequence": "QVQLVESGGGLVQAGGSLRLSCAASGSIFRTYTMGWYRQAPGKEREFVAAISRSGGSTYYADSVKGRFTISRDNAKNTVYLQMNSLKPEDTAVYYCNARWGLGSYGYWGQGTQVTVTS", "polyreactivity (PSR sort gate)": "high polyreactivity"},
      {"sequence": "QVQLVESGGGLVQAGGSLRLSCAASGSIFRVYAMGWYRQAPGKERELVAAISSSGDSTYYADSVKGRFTISRDNAKNTVYLQMNSLKPEDTAVYYCAADVKQRVKSSTMYYWGQGTQVTVSS", "polyreactivity (PSR sort gate)": "high polyreactivity"},
      {"sequence": "QVQLVESGGGLVQAGGSLRLSCAASGSIFRVYAMGWYRQAPGKERELVAAISSSGVRTSYADSVKGRFTISRDNAKNTVYLQMNSLKPEDTAVYYCNAAYGRRYDYWGQGTQVTVSS", "polyreactivity (PSR sort gate)": "high polyreactivity"},
      {"sequence": "QVQLVESGGGLVQAGGSLRLSCAASGSIFRVYAMGWYRQAPGKERELVAAITSRGGSTYYADSVKGRFTISRDNAKNTVYLQMNSLKQEDTAVYYCAAAYPYRTGRGYYWGQGTQVTVSS", "polyreactivity (PSR sort gate)": "high polyreactivity"},
      {"sequence": "QVQLVESGGGLVQAGGSLRLSCAASGSIFRVYAMGWYRQAPGKERELVAAITYSSGSTYYADSVKGRFTISRDNAKNTVYLQMNSLKPEDTAVYYCAAYWSYYLREFDYWGQGTQVTVSS", "polyreactivity (PSR sort gate)": "high polyreactivity"},
      {"sequence": "QVQLVESGGGLVQAGGSLRLSCAASGSIFRVYAMGWYRQAPGKVRELVAVISIAGRTNYADSVKGRFTISRDNAKNTVYLQMNSLKPEDTAVYYCNAEWDLNHLYDSWGQGTQETVSS", "polyreactivity (PSR sort gate)": "low polyreactivity"},
      {"sequence": "QVQLVESGGGLVQAGGSLRLSCAASGSIFRWNAMGWSRQATGKERELVAVINSSGGSTYYADSVKGRFTISRDNAKNTVYLQMNSLKPEDTAVYYCAADVFFYVYEAYLLYYWGQGTQVTVSS", "polyreactivity (PSR sort gate)": "low polyreactivity"},
      {"sequence": "QVQLVESGGGLVQAGGSLRLSCAASGSIFRWYAIGWYRQAPGKERELVATICWSTGTTYYADSVKGRFTISRDNAKNTVYLQMNSLKPEDTAVYYCAKVSTYRSSYSLKSGYGNDYWGQGTQVTVSS", "polyreactivity (PSR sort gate)": "low polyreactivity"},
      {"sequence": "QVQLVESGGGLVQAGGSLRLSCAASGSIFRYNAMGWYRQAPGKERELVAAIDWSGGTYYADSVKGRFTISRDNAKNTVYLQMNSLKPEDTAVYYCNARGSTYSSYWGYDYWGQGTQVTVSS", "polyreactivity (PSR sort gate)": "low polyreactivity"},
      {"sequence": "QVQLVESGGGLVQAGGSLRLSCAASGSIFRYNAMGWYRQAPGKERELVAAISQSGGRTSYADSVKGRFTISRDNAKNTVYLQMNSLKPEDTAVYYCAKRAYGYRSIYRMDYWGQGTQVTVSS", "polyreactivity (PSR sort gate)": "high polyreactivity"},
      {"sequence": "QVQLVESGGGLVQAGGSLRLSCAASGSIFRYNAMGWYRQAPGKERELVAGITWGGGRTYYADSVKGRFTISRDNAKNTVYLQMNSLKPEDTAVYYCNAVRKYKGDSSFDYWGQGTQVTVSS", "polyreactivity (PSR sort gate)": "high polyreactivity"},
      {"sequence": "QVQLVESGGGLVQAGGSLRLSCAASGSIFRYNAMGWYRQAPGKERELVAVIRGTSGDTYYADSVKGRFTISRDNAKNTVYLQMNSLKPEDTAVYYCAAQLAGASYSHSNYSDWFDYWGQGTQVTVSS", "polyreactivity (PSR sort gate)": "low polyreactivity"},
      {"sequence": "QVQLVESGGGLVQAGGSLRLSCAASGSIFRYNVMGWYRQAPGKERELVAAISYTGGRKYYADSVKGRFTISRDNAKNTVYLQMNRLKPEETAVYDCAALGWSGRYRYDYWGQGTQVTVAS", "polyreactivity (PSR sort gate)": "high polyreactivity"}
    ]}
  ]
}
